Data as given in the supplement of paper PMC9732359.
± gives the uncertainty stated by the source.

Assay: protein stability index of a GFP-peptide fusion (yeast GPS) (PSI 1-4); higher = more stable; sorted into four equal gates, so the index is relative within each strain
In short: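 Peptides tiling yeast proteins in 17-residue segments were fused downstream of GFP, with Cherry expressed from the same plasmid. As a pooled library in yeast, mid-log cultures grown in leucine-free medium were sorted into four equal gates by GFP/Cherry fluorescence ratio. Gate plasmids were PCR-amplified and Illumina-sequenced, and barcodes linked reads to strains. Each peptide received a protein stability index equal to the sum of each gate's read frequency times its gate number.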

Row | Sequence | protein stability index (doa10∆) | protein stability index (pdr5∆) | protein stability index (san1∆) | protein stability index (ubr1∆)
1 | FANNLKSAISNNFRESD [SIR4] | 2.55 ± 0.053 | 2.59 ± 0.048 | 2.56 ± 0.044 | 2.41 ± 0.042
2 | RALKVRNAQAQREAAAE [RPS6A] | 3 ± 0.14 | 2.98 ± 0.1 | 2.74 ± 0.074 | 2.94 ± 0.13
3 | GTNNISQHGQGNNPSWV [YDL088C/ASM4] | 3.01 ± 0.078 | 3.39 ± 0.059 | 3.3 ± 0.058 | 3.12 ± 0.054
4 | ELDAQTLPGDDELDQEI [RPT5] | 3.32 ± 0.097 | 3.26 ± 0.12 | 3.44 ± 0.083 | 3.59 ± 0.094
5 | SKKQRNNGSKDHGDGIL [RPN9] | 3.37 ± 0.13 | 2.85 ± 0.097 | 3.27 ± 0.057 | 2.78 ± 0.053
6 | DGLGNVVDFTSLPEELK [YMR129W/POM152] | 3.4 ± 0.096 | 3.47 ± 0.1 | 3.3 ± 0.046 | 3.42 ± 0.095
7 | QTKENKRCVGVILGDAN [RPN8] | 2.89 ± 0.053 | 2.9 ± 0.05 | 2.74 ± 0.055 | 2.73 ± 0.04
8 | ETKWDDADEKSSNLYET [YJR042W/NUP85] |  | 3.22 ± 0.15 | 3.02 ± 0.13 | 3.25 ± 0.097
9 | EFDSDDDDISDDEEDEI [RPN4] | 3.47 ± 0.1 | 3.28 ± 0.09 | 3.14 ± 0.082 | 3.31 ± 0.098
10 | LSAADIVAQSEVEVSTR [RPO31] | 2.33 ± 0.09 | 2.53 ± 0.11 | 2.54 ± 0.094 | 2.84 ± 0.068
11 | NNDADKGRSYAYFMVGA [RIP1] | 3.24 ± 0.11 | 3.32 ± 0.1 | 3.29 ± 0.084 | 3.07 ± 0.075
12 | PDEAIEKVFNAYPAARE [FAS1] | 2.94 ± 0.099 | 3.22 ± 0.1 | 3.11 ± 0.059 | 3.1 ± 0.093
13 | GVVQMVTDNKTPEMNVT [TAF14] | 2.78 ± 0.16 | 2.67 ± 0.22 | 3.33 ± 0.092 | 
14 | DAENEWNVEKFKKDFEV [RPC40] | 1.39 ± 0.12 | 1.7 ± 0.21 | 1.85 ± 0.16 | 1.82 ± 0.11
15 | RVQVGDIVTVGQCRPIS [RPS11A] | 3.14 ± 0.16 | 3.26 ± 0.082 | 3.07 ± 0.067 | 3.23 ± 0.074
16 | AWGALITTFVKRSTVPL [YML103C/NUP188] | 2.46 ± 0.07 | 2.88 ± 0.072 | 2.49 ± 0.076 | 2.33 ± 0.12
17 | QLENADTGTLDTKSVVG [RPN2] | 3.09 ± 0.087 | 3.01 ± 0.082 | 3.08 ± 0.071 | 3.04 ± 0.075
18 | YVSQIRKHKRVSPNAAP [YAR002W/NUP60] | 1.95 ± 0.084 | 1.64 ± 0.053 | 2.53 ± 0.085 | 2.29 ± 0.081
19 | PQDLTFNAGSNPPSYQS [RPB7] | 2.96 ± 0.17 | 2.99 ± 0.11 | 3.1 ± 0.17 | 2.86 ± 0.096
20 | SLQRSKSSFVKESAVIS [SMC1] | 2.04 ± 0.11 | 2.27 ± 0.047 | 2.17 ± 0.067 | 2.29 ± 0.039
21 | AKAGLTFPVGRVHRLLR [HTA1] | 2.03 ± 0.11 | 2.72 ± 0.14 | 2.01 ± 0.16 | 2.39 ± 0.12
22 | KTSKDIAVLRSKEWFQL [FAS1] | 2.01 ± 0.033 | 2.07 ± 0.031 | 1.91 ± 0.046 | 2.25 ± 0.032
23 | EIEPILMEIHNILKVDS [RGR1] | 1.74 ± 0.098 | 1.84 ± 0.1 | 1.98 ± 0.15 | 1.76 ± 0.065
24 | EEKEEEAAEESDDDMGF [RPP1B] | 3.19 ± 0.06 | 3.23 ± 0.065 | 3.09 ± 0.048 | 3.31 ± 0.036
25 | QDQYKEGIKVVDIDDPD [SNF2] | 2.97 ± 0.16 | 2.45 ± 0.086 | 2.13 ± 0.071 | 2.54 ± 0.073
26 | VTGASQFQRLAPSLTVP [PRE2] | 2.01 ± 0.096 | 1.25 ± 0.095 | 1.36 ± 0.2 | 1.67 ± 0.089

Row | Sequence | protein stability index (doa10∆) | protein stability index (pdr5∆) | protein stability index (san1∆) | protein stability index (ubr1∆)
27 | STYLPKLISAFDDLEVE [RRP42] | 2.63 ± 0.051 | 2.75 ± 0.042 | 2.58 ± 0.05 | 2.74 ± 0.032
28 | LSGSISERIVDCIIRLP [FAS1] | 1.35 ± 0.092 | 1.16 ± 0.09 | 1.23 ± 0.27 | 1.85 ± 0.046
29 | ICNPVHKHREARGLTAT [RPL15B] | 2.81 ± 0.078 | 2.52 ± 0.082 | 2.59 ± 0.092 | 2.42 ± 0.062
30 | FPRTRFEAQIDSVEFIF [RPN10] | 2.61 ± 0.11 | 2.88 ± 0.066 | 2.62 ± 0.11 | 2.81 ± 0.068
31 | VGPHFKQANNFLWPFKL [RPL7A] | 2.71 ± 0.069 | 3.05 ± 0.098 | 2.97 ± 0.065 | 2.93 ± 0.064
32 | MAPNTSRKQKVIKTLTV [RPL22B] | 2.1 ± 0.18 | 2 ± 0.088 | 2.6 ± 0.13 | 1.97 ± 0.093
33 | KLAKNLQIGDVVERHLE [RPO31] | 3.25 ± 0.15 | 3.49 ± 0.12 | 3.31 ± 0.069 | 3.2 ± 0.12
34 | FGVSFIYAGYDDRYGYQ [PRE9] | 2.33 ± 0.09 | 2.61 ± 0.097 | 2.04 ± 0.19 | 2.45 ± 0.11
35 | LQNSERDVELSSDELKV [SMC4] | 2.84 ± 0.11 | 3.12 ± 0.088 | 2.73 ± 0.066 | 3.04 ± 0.12
36 | KEEVCQGMEGTVDLALF [YMR129W/POM152] | 3.45 ± 0.21 | 3.44 ± 0.27 | 3.26 ± 0.2 | 
37 | SLSKISQAFDIVAALPI [RPP1] | 3.18 ± 0.12 | 3.46 ± 0.15 | 2.97 ± 0.13 | 
38 | PSFTDEQWITIESQMRD [PRP8] | 2.44 ± 0.067 | 2.66 ± 0.064 | 2.8 ± 0.069 | 2.6 ± 0.053
39 | MTPVIEKIAAGYMQKPV [PRP28] | 2.16 ± 0.11 | 1.93 ± 0.11 | 1.83 ± 0.14 | 2.68 ± 0.075
40 | VEETEVPTVPPSQSEEQ [MED4] | 2.73 ± 0.079 | 2.69 ± 0.1 | 2.43 ± 0.13 | 2.74 ± 0.055
41 | QVRNQVFMLDTKRLGTP [RGR1] | 2.77 ± 0.099 | 2.46 ± 0.11 | 2.75 ± 0.084 | 2.89 ± 0.17
42 | LHKRQQFSESTHNDIDS [YJL039C/NUP192] | 2.9 ± 0.081 | 3.03 ± 0.091 | 2.78 ± 0.051 | 3.03 ± 0.05
43 | ESEKLVTPEDVMTISSL [RPC82] | 3.23 ± 0.083 | 3.13 ± 0.078 | 3.05 ± 0.059 | 3.26 ± 0.072
44 | ADAQIQRETYDSNESDD [YLR335W/NUP2] | 2.07 ± 0.22 | 3.38 ± 0.21 |  | 2.66 ± 0.21
45 | EEIKTVDPASAPNHSPE [RRP6] | 3.01 ± 0.096 | 2.96 ± 0.072 | 3.27 ± 0.068 | 3.19 ± 0.056
46 | ARVSPRNNVANKQPRNE [YAR002W/NUP60] | 3.29 ± 0.14 | 3.78 ± 0.26 |  | 3.65 ± 0.25
47 | LKFLYLLDAYSHIESDS [MED1] | 2.46 ± 0.091 | 2.44 ± 0.075 | 2.8 ± 0.061 | 2.64 ± 0.057
48 | LDDEKIFSQTTNSTYNP [YJL039C/NUP192] | 2.78 ± 0.061 | 2.85 ± 0.053 | 2.91 ± 0.062 | 3.08 ± 0.045
49 | TGDADEPELRVLSTEEI [RPO21] | 3.59 ± 0.13 | 3.25 ± 0.099 | 3.49 ± 0.064 | 3.43 ± 0.06
50 | GYDKSGAHLLEFQPSGN [PRE5] | 2.68 ± 0.25 | 3.22 ± 0.18 | 2.79 ± 0.21 | 
51 | KKQPSILVGGTLKDYQI [SNF2] | 2.31 ± 0.11 | 2.71 ± 0.099 | 2.35 ± 0.11 | 2.47 ± 0.083
52 | LIELLEKLDVSRSSVCV [YCG1] | 2.44 ± 0.072 | 2.32 ± 0.058 | 2.05 ± 0.08 | 1.88 ± 0.065
